According to patent publication US6982170:

Experiments:
[1] = test system: human wild type FGF-1 (fibroblast growth factor-1)
[2] = test system: thrombin resistant mutant FGF-1R136K
[3] = molecular target: human wild type FGF-1 (fibroblast growth factor-1) (human) (UniProt P05230); assay: cell-based or functional assay

BAEC growth (cell number after 3 days) with thrombin-pretreated growth factor [3] | Substance | degradation of FGF-1 on Western blot (bands at 17 kD and 14 kD), no heparin [1] | degradation of FGF-1 on Western blot [2] | size of the cleavage band on Western blot [2]
 | thrombin | wild-type FGF-1 was degraded by even the lowest concentration of thrombin used (0.5 U/ml) | FGF-1R136K, even in the absence of heparin, was relatively resistant to thrombin degradation | the band detected upon treatment of FGF-1R136K mutant is slightly larger than the degradation band from wild type FGF-1
< 1 U/ml | thrombin (enzyme) |  |  | 
